The numbers were not newly measured in publication PMC3505834, which cites them from elsewhere.

As a reminder, the pKd is the Kd on a negative log10 scale, so that one unit is a factor of ten.

pKd: −log10 of the molar value.

In this data set the target is C3b C3b (Homo sapiens) (UniProt P01024).
C3b C3b (Homo sapiens), sequence (P01024 566-670): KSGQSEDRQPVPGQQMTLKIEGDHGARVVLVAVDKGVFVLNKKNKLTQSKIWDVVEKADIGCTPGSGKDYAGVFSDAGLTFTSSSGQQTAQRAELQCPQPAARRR

CD46, sequence (P15529 35-343): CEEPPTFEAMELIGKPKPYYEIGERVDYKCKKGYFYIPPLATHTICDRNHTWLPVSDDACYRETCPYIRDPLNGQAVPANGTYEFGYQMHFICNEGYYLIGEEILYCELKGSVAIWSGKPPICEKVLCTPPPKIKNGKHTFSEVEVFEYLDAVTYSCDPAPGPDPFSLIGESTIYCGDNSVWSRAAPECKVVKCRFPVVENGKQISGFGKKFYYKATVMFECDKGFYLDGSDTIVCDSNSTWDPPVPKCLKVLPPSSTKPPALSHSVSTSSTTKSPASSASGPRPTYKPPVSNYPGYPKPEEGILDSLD

Take CD46 (from UniProt P15529): the negative logarithm of the Kd (pKd) was 6.00.
